The text below walks through data of patent US7537932.

The assay addresses mouse Flt3 receptor on Baflt cells (Ba/F3 cells stably transfected with Flt3 cDNA) (mouse) (UniProt Q00342). Nature of the assay: cell-based or functional assay.
Chain of UniProt Q00342 (Q00342 28-1000): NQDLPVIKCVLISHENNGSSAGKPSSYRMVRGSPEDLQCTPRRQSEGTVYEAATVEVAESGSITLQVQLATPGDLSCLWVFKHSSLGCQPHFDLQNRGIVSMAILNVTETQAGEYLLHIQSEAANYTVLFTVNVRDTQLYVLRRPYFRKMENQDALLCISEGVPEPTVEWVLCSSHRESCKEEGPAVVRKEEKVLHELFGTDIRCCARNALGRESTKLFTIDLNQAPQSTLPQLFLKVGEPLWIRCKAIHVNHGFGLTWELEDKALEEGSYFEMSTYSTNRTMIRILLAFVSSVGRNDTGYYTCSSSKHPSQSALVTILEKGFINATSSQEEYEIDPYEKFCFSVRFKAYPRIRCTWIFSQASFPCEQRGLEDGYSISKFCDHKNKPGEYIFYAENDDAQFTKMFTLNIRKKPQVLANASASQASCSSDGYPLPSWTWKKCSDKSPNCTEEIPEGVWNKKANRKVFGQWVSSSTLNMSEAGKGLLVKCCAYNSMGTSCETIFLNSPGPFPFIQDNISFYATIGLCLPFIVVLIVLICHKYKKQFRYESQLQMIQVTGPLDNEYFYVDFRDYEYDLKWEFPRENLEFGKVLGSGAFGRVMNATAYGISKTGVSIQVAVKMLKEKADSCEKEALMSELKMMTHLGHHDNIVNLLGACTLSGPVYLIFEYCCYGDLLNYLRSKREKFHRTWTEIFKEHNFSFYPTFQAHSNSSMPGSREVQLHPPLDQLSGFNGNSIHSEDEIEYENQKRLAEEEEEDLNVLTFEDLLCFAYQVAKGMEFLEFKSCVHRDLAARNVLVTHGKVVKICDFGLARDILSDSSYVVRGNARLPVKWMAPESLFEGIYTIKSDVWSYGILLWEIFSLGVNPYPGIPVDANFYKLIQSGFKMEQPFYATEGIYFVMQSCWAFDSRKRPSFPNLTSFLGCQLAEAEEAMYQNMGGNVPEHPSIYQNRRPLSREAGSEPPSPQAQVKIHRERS

Substance “purified native mouse Flt3 ligand (naturally occurring soluble form from TA4 thymic stromal cell conditioned medium) (from UniProt P49772 27-189)” returned a specific activity in the bioassay (MTT assay, Baflt minus Ba/F3) of 3e+06 units/mg and a specific activity on the Baf assay (MTT survival assay, Baflt minus Baf signal) (Units per milligram) of 1e+07.
